# Values of other authors as cited in paper PMC6868133 (Scientific Reports, 2019).
# Like-named read-outs stand apart in the source and are kept apart here.
# Tests used:
# [1] = human, in vivo
# [2] = rhesus monkey, in vivo, sc
# [3] = system: fasting plasma glucose levels; settings: humans
# Description: The goal of the current study was to evaluate the pharmacokinetic properties of a single-dose of PT320 in healthy nonhuman primates. […] Systemic Exenatide ...
# [4] = Long-Acting (> 24 hr), ref supplement [3-5]
substance,measurement,setting,value
albiglutide,Half Life (T1/2),[4],140 to 170 h
same,T1/2,long-acting GLP-1R agonists,140 to 170 h
dulaglutide,Half Life (T1/2),[4],96 h
same,T1/2,long-acting GLP-1R agonists,96 h
Semaglutide,Half Life (T1/2),[4],140 to 170 h
Exenatide,patients with higher-titer antibodies (≥625),[1],5%
same,patients with low anti-Exenatide antibody titers (≤125),[1],32%
same,terminal disappearance half-life from plasma,[2],0.78 to 1.94 h
same,minimally effective concentration (level required to reduce fasting plasma glucose levels),[3],approximately 50 pg/ml
lixisenatide,Half Life (T1/2),"Short-Acting (< 24 hr), ref supplement [1,2]",3 h
same,T1/2,"short-acting GLP-1R agonist, administered once daily",3 h
